Measurements reported in the NTF2 design screens of Basanta et al. (2020).

Assay: protease stability score; higher = more stable; yeast display proteolysis, trypsin and chymotrypsin;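 note: relative to predicted unfolded state with 0 unfolded-like and 1 meaning tenfold more protease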

Row | Sequence | protease stability score
1 | SEVEEDIRKWLKEHTDSIRTGDEERMLRNMDPHVRVDIDGVEHHGWEHLEEFIHRLTKKIKNMRVDWHRVRFQGDKAEIDGELDIDGRVTHVHIHSIKVDGRWYIKEIYIT | 1.24
2 | SEVEEDTKRVLELLRESWKTGDEHSIKEMLDPNVKILVGDKEFHGMEDWHRIYKRFDYISIRHVRLKDSRHINGVVYLIIHIESEYRIGDKTTEKRYDASIINEKVDGRWIIRSIEIH | 1.91
3 | SEVEEEMEEILKKLLTAFRTGDEKTLEDLLDPHVRLEIGDKTHVGWRDIAEFLRRHIERVDHMRINIDHMEIQGEKIHIDGTLHFWIGDKRHHEKVHLIFVIVNGRLKKIHIHKI | 2.64
4 | SEVEEEMKRRVELLIRLLLTGDEDTFDSNADPDTRVVIRQGDFRVENHGRELMLHHLRELGIKVTELHLREIRIQGDWAHVNIQEHIEVDGRLESRTIHLHFFLVDGKVKSWEIEVR | 1.27
5 | SEVEEEMTRIADILLRVTKTGDWEEMRDLIDPDARMIIDIDGREHINVGREDLARSLKRLRDHLGVKVWDYHHISVIGDKIHIETQQRFNGQDVTTRNEWTVINGKLKEMRLIIH | 2.02
6 | SEVEEFVKRVIHLFHKAFLTGDEHTLIELIDPNARYDVDGRDVHGREIIVEFISTMWRDRGIRIKHVHIEERRYINGRIEIHSKIDVTIGDKREHLETSMIWVKINGQWFIEILIVR | 0.233
7 | SEVEELSRRVAEFTWEVLRTGDERLLREMIDPNVRMEIDGQEYHGMELLVEHWIKLHQKFPNLKLHLREVRVIDGVAHVRLEVRFNGVRLEIEVVITKINGRWSNTFVHETDR | 1.13
8 | SEVEERFKEEMHRQFENSETGNEDEVAKYFDPDARMHIDGKEIHGRDEVKRILSEWRLTHITLRDFRIVGNKIHTDAEVVIEIGDKKIRYRVHIIQYKVNGQWRVESFEVK | 0.88
9 | SEVEESAKIIAELWAHSVETGDEHTLRELMDPNTRFEYGDKERHGRENVTKYFLHFQKWLGFKHIRLEIEDSKAIGDKIKIDLTIKLHQGEKHDFVIVQLFVTKVNGRWVIHSMIVH | 1.58
10 | SEVEESIEHAREIVTEVIKTGDEHHLNRLADPNTRVVFDGKDLHGRERLEEVLREMGVNHIEIKDMKYDSQGNKVHIDIDGRVNVGEKSHNTHLHWIVEKVNGRWLLSSIIIIIR | 0.886
11 | SEVEEWLRTLIHLIILAFRTGDEDQMRRNFDPNARVHVGDKDYHGRELFEEMMHHWRLHHIHIHDVRVQGDYVEADIKLDGEVNGKRFTTRVIIVFLKIDGKWQEKESEFV | 0.395
12 | SEVEHALHEILEILVKIMKTGNFEDLIRNFDPHVQLEFNGKRYHGREAEHFLRERFDHNRHHHVHEVRVQGDKVELHGKLIGEFNGREEEVHIDIIAHKINGRWIFKSVHFR | 2.15
13 | SEVEKHLHNVIELYIRALRTGDEERLRKLLDPHVRVRIGDKHLHGREDWWQHVTRYDHESVHDLKIDHVRVVGNKIEMIITHDIIIIVNGVNLRHSIETEVHARKVDGVWYLTELHHG | 0.075
14 | SEVEKMARHFVELLSKALLTGNWKTIKELVDPNDLLVVGDKIFHGWDVREEERKRFDHHVMDVKVDHHRDIDGRIEMETTLHLDVNINGVRFHFNHETEMIVRKVNGRWILKSETIR | 0.087
15 | SEVERLLREILKLVQHAYETGDEETITELVDPHARMDINGKELHGRDMLHLLLRRIDHEHMRVEMKSVEIQGEWAISRGEEQVHVHVNGKKFDLVINSRVVLHKVDGQWVVRSLFYK | 0.787
16 | SEVHEQIEEIFREFMHMLLTGDWKRLTELADPHVRLEFDGREFHGREELVRRLLELGFKHQHLHDMRIHNFDGRVYMHTDTRVHVDGKHVIVRLELIVNKFNGQWYVHSLRIEVQ | 0.343
17 | SEVHRDLRKAVDYFEEVFRTGDEDKMNNLLDPNVRWIVNGKDLVGREKAIRRYHEHRKTLGVNHFETRIDDQEVYGNKATLHGELTIHVNGRDIHHETRLNVSKINGVWYIESFIID | 0.949
18 | SEVNKHVEEISKLMVKFLLTGNEDLHKSLADPNYYSDVNGRHVIGRHHVEELWHLFLNEIRIDNIHIEDMKIQGEKAHIQGRIIGTVNGKHDELHATMIVVVIDGRIHSLKVEWR | 1
19 | SEVQELAERMFRFLLKVFETGNEDRLTELMDPNTLQIIGDKRNHGRDLYLRTVFEKVEHARMRIEFKEVHVINGQINVDGILWLEFDGRRIFFRVHLELTVVNGVLKEEHVTIH | 1.56
20 | SEVQESIKEVIEIWNKALETGDWHRLTELADPDTRVEIGDKDIIGREAVTSELEKVTHKFKNLRIDEIHIERLEIQGEKVELHGIIRGTVNGQHRFYHTEFIIVKINGRWRLRVIYFL | 1.79
21 | SEVQETIDHLVREVLHDFRTGDERRLEENMDPNAKSIFDGRESHGREKVSKMIHDFLEEMGFKHMELKEREVVGNKVEIHGRVIIGDKEFELHLHSQKIDGRWVLDSIRIE | 0.52
22 | SEVREDIERILTQWSKIMETGDEHTAKRLADPHVKIEVDGRTSVGMETWMEFLRDLGFKVIHVRVHIEHVRDIDGKARVDIRLVIESNVGDKTERYEHETHMIIEKIDGRWVLTRILLK | 1.01
23 | SEWDELLRHILEVMINSVLTGDEHRQLWMADPHAKVHFENHEVHGRDHWSHLVREHINEIRMRIHLHDEKTVGNFAVSDVRYREEVNGVELSTEIELILIVVDGRLKQIEFRYH | -0.029
24 | SEWDRLMKRIAEDITTALQTGDEDRMHELFDPHARMILLIGDFELHYHGMHEISRVLEEHLRRYDHLEWHIRHVDTQGNKVRVESEMRLIIGDKSETRDYRIILIVINGRNKSVEFRVH | 1.49
25 | SEWEEELERLLREIIHSILTGDEKRLRELMDPNAKFHILVNGVEIDLMGMEHHSHWFREWLKHARINTVHIRHYDVVGEKARSDTELDMEIDGRRIRTRTELILVVIDGRVHSLEIRIK | 2.02
